Data from paper PMC3682478.

Assays:
Experiment in all cases: kinetic pause assay
[1] = biological target: NusA NTD-S1;RNA polymerase core (Escherichia coli;Escherichia coli, UniProt P0AFF6;P0A7Z4;P0A8V2;P0A8T7 1-200;1-329;1-1342;1-1407, |)
[2] = biological target: NusA NTD;RNA polymerase core (Escherichia coli;Escherichia coli, UniProt P0AFF6;P0A7Z4;P0A8V2;P0A8T7 1-137;1-329;1-1342;1-1407, |)
[3] = biological target: NusA NTD-S1-KH;RNA polymerase core (Escherichia coli;Escherichia coli, UniProt P0AFF6;P0A7Z4;P0A8V2;P0A8T7 1-348;1-329;1-1342;1-1407, |)
Sequence of NusA NTD-S1-KH;RNA polymerase core (P0AFF6 1-348, chain 1 of 4): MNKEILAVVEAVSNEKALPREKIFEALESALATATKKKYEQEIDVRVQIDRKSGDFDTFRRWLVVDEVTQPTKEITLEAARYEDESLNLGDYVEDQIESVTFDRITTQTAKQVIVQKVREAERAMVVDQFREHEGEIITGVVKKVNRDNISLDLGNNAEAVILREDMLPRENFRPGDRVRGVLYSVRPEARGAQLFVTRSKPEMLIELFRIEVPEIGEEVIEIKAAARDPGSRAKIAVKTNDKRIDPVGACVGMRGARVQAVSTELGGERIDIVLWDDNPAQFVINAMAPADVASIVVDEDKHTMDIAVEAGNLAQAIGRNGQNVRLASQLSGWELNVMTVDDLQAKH
Sequence of NusA NTD-S1-KH;RNA polymerase core (P0A7Z4 whole entry, chain 2 of 4): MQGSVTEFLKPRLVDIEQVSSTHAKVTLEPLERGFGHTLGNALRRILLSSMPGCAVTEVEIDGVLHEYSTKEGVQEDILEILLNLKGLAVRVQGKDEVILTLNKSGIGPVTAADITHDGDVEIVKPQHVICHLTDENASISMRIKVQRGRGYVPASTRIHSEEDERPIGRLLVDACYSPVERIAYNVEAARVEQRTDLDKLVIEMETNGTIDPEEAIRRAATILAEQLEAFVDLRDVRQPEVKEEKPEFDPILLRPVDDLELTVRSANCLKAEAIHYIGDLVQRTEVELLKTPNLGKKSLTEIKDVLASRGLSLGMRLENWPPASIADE
Sequence of NusA NTD-S1-KH;RNA polymerase core (P0A8V2 whole entry, chain 3 of 4): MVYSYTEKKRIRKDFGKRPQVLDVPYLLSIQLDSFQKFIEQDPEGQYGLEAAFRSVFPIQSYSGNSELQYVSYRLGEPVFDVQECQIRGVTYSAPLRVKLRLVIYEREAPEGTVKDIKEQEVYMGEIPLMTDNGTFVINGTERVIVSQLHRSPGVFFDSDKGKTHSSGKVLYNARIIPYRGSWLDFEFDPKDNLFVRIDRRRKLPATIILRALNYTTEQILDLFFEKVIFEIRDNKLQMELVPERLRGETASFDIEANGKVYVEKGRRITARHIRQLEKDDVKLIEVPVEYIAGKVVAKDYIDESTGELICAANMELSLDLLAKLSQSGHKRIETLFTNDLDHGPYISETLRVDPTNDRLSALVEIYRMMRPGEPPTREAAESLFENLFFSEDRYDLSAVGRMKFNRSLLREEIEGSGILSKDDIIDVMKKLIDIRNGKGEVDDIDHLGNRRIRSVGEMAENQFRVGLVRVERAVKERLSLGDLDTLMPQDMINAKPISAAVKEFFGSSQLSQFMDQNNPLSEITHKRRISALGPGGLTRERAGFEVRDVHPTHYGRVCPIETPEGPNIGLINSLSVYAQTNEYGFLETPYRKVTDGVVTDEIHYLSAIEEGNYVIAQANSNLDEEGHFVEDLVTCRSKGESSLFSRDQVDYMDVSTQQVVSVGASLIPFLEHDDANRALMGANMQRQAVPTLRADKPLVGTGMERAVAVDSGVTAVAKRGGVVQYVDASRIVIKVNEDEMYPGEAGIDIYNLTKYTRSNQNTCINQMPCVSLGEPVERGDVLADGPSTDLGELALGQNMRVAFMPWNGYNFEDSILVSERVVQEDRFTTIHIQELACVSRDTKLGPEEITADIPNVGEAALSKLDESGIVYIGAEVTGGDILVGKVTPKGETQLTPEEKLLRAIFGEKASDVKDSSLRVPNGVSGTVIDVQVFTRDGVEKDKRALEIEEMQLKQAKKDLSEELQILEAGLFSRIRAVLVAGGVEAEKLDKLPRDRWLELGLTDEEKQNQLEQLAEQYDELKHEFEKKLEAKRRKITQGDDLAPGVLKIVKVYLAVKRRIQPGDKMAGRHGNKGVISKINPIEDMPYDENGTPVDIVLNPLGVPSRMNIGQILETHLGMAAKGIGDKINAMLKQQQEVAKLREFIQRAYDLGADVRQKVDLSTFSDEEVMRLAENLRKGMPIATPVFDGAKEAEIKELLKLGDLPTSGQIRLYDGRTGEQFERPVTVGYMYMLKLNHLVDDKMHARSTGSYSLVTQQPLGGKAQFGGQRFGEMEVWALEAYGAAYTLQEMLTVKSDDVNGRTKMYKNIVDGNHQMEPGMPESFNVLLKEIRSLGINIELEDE
Sequence of NusA NTD-S1-KH;RNA polymerase core (P0A8T7 whole entry, chain 4 of 4): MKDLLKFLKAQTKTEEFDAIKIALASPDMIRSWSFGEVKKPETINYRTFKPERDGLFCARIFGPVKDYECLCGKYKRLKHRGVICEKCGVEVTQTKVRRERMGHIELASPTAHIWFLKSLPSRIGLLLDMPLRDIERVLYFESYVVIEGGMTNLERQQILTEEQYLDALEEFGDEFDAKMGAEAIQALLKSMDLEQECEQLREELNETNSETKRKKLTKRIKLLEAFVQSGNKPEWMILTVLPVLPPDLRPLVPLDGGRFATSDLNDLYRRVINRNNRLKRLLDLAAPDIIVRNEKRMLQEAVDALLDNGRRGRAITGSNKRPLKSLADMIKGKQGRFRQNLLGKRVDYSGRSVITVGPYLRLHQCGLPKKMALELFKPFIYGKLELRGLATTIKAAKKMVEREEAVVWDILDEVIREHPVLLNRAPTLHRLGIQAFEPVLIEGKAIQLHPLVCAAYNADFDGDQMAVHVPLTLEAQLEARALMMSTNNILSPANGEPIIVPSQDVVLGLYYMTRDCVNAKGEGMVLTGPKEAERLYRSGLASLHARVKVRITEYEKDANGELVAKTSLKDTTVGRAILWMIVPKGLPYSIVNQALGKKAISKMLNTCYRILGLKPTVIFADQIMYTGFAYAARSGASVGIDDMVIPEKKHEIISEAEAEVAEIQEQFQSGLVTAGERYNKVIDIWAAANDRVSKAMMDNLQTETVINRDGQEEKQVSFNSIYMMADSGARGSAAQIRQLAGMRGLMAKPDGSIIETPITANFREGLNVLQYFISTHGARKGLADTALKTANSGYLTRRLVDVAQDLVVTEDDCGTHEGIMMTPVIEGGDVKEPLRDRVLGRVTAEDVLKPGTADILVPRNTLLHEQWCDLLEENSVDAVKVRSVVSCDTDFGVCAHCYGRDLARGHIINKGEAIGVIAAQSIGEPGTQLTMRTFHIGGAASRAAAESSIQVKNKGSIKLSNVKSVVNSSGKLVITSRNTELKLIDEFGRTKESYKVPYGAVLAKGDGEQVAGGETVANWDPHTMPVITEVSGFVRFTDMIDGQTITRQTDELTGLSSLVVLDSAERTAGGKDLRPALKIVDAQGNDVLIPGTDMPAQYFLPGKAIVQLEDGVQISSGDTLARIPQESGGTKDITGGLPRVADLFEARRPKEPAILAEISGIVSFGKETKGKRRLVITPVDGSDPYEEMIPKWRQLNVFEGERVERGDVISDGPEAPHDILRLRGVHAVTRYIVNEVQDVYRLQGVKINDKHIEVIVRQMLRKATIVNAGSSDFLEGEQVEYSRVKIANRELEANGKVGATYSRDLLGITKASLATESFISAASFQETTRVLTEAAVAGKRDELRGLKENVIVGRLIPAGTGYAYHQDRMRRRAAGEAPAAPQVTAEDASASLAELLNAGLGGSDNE

B1: his PTC scaffold (RNA at U29) (mixed)
DNA 1: GGTCAGTACGTCCATTCGATCTTCGGAAGAGATTCAGAG
DNA 2: CTCTGAATCTCTTCCAGCACACATCAGGACGTACTGACC
RNA: CCUGACUAGUCUUUCAGGCGAUGUGUGCU
For B1, the Ki [1] was 74.6 ± 19.4 nM, the Ki [2] was 55.4 ± 27.8 nM and the Ki [3] was 11.8 ± 8.7 nM.
